Results: patent publication US20150010920

Legend:
[1] = system: EGFP-cas3-1 (also called EGFP-EF172cas)
[2] = system: EGFP-T/C1 (EGFP-E-III-F-172)
[3] = system: EGFP-Thr1 (EGFP-E-III-F-N188R)
[4] = system: EGFP-Thr1e (EGFP-E-III-F-FNPRGF)
[5] = system: EGFP-Thr1f (EGFP-E-III-F-FNPRSF)

Substance | cleavage; 50 mM HEPES buffer with 10% sucrose [1] | optical change / cleavage (absorbance at 397 nm, SDS-PAGE, MALDI-MS) [2] | Km (µM); 50 mM Tris, 150 mM NaCl, 2.5 mM CaCl2, pH 8.0 [3] [µM] | kcat (s^-1); 50 mM Tris, 150 mM NaCl, 2.5 mM CaCl2, pH 8.0 [3] [s⁻¹] | kcat/Km (M^-1 s^-1); 50 mM Tris, 150 mM NaCl, 2.5 mM CaCl2, pH 8.0 [3] [M⁻¹ s⁻¹] | Km (µM); 50 mM Tris, 150 mM NaCl, 2.5 mM CaCl2, pH 8.0 [4] [µM] | fold change in Km compared to the thrombin sensor with cleavage linker (Gly-Arg-Gly) [4] | fold change in kcat compared to the thrombin sensor with cleavage linker (Gly-Arg-Gly) [4] | fold change in kcat/Km compared to the thrombin sensor with cleavage linker (Gly-Arg-Gly) [4] | kcat (s^-1); 50 mM Tris, 150 mM NaCl, 2.5 mM CaCl2, pH 8.0 [4] [s⁻¹] | kcat/Km (M^-1 s^-1); 50 mM Tris, 150 mM NaCl, 2.5 mM CaCl2, pH 8.0 [4] [M⁻¹ s⁻¹] | Km (µM); 50 mM Tris, 150 mM NaCl, 2.5 mM CaCl2, pH 8.0 [5] [µM] | fold change in Km compared to the thrombin sensor with cleavage linker (Gly-Arg-Gly) [5] | fold change in kcat compared to the thrombin sensor with cleavage linker (Gly-Arg-Gly) [5] | fold change in kcat/Km compared to the thrombin sensor with cleavage linker (Gly-Arg-Gly) [5] | kcat (s^-1); 50 mM Tris, 150 mM NaCl, 2.5 mM CaCl2, pH 8.0 [5] [s⁻¹] | kcat/Km (M^-1 s^-1); 50 mM Tris, 150 mM NaCl, 2.5 mM CaCl2, pH 8.0 [5] [M⁻¹ s⁻¹]
active caspase-3 | the cleavage effect was very weak and the cleavage reaction slow | – | – | – | – | – | – | – | – | – | – | – | – | – | – | – | –
thrombin | – | this sensor was not cleaved by thrombin and protease type X | 20.9 | 0.057 | 2770 | 2.81 | Km has great decrease with 10 folds | kcat, has significant increase with 5 folds | substrate specificity (kcat/Km) of these four thrombin sensor variants is resulted in 50-fold increase | 0.29 | 105000 | 2.86 | Km has great decrease with 10 folds | kcat, has significant increase with 5 folds | substrate specificity (kcat/Km) of these four thrombin sensor variants is resulted in 50-fold increase | 0.23 | 80200
